This note sets out measurements from patent US20160237160A1 (Bayer, published 2016).

Experiment [1] has as its target T1, TWEAKR (TNFRSF12A, FN14), human, on tumor cell lines (human, UniProt Q9NP84 28-129). The experiment in a line: cell-based or functional assay.
The target in experiment [2] is T2, TPP-2202 (TWEAKR-ECD-28-80-hIgGFc-His) (human).
T2 construct: dimeric; also called TWEAKR-Fc fusion protein; full ectodomain 28-80
Nature of the experiment: ELISA, TPP-2202 coated at 1 µg/ml, biotinylated IgG at 0.08 µg/ml (open bar) and 0.3 µg/ml (filled bar), Streptavidin-HRP, Amplex Red.
Method: Detection was done with Streptavidin-HRP and Amplex-Red substrate.
To analyze for binding, 1 μg/ml of the respective dimeric TWEAKR-Fc construct were coated and, 0.3 μg/ml and 0.08 μg/ml of biotinylated IgG were used as soluble binding partner. Detection was done with Streptavidin-HRP and Amplex-Red substrate.

Experiment [3] deals with T1, TWEAKR (TNFRSF12A, FN14), human, on …. Nature of the experiment: cell-based or functional assay. The source holds these as a separate data set.
For experiment [4] the target is unchanged. Nature of the experiment: FACS, 786-O cells, 10 ug/ml.
Method: (§1) To determine the binding characteristics of the anti-TWEAKR antibodies on mouse and human cancer cell lines, binding was tested by flow cytometry to a panel of cell lines. […] Cells were suspended at approximately 10⁵ cells/well in FACS buffer (PBS without Ca/Mg, containing 3% FCS, Biochrom). Cells were centrifuged (250 g, 5 min, 4° C.) and supernatant discarded. Cells were resuspended in dilutions of the antibodies of interest (10 μg/ml in 80 μl if not indicated otherwise) in FACS buffer, and incubated on ice for 1 h. […] After incubation for 1 h on ice cells were again washed with cold FACS buffer, resuspended in 1000 FACS buffer and analyzed by flow cytometry using a FACS-Array (BD Biosciences). Results are calculated as Geo Mean of fluorescence detected by the antibody of interest subtracted by background fluorescence as measured by detection with the secondary antibody alone. Values are scored according to the following system: Geo Mean−Geo Mean of secondary antibody alone >10: +, >100: ++, >1000: +++, 10000: ++++, close to category border in ( ).
For experiment [5] the target is unchanged. Nature of the experiment: FACS, WiDr cells, 10 ug/ml.
Method: as §1
The target is the same in experiment [6]. The experiment in a line: FACS, SKOV-3 cells, 10 ug/ml.
Method: as §1
For experiment [7] the target is unchanged. Nature of the experiment: FACS, NCI-H322 cells, 10 ug/ml.
Method: as §1
For experiment [8] the target is unchanged. Nature of the experiment: FACS, HT29 cells, 10 ug/ml.
Experiment [9] deals with TPP-1988 (hTNFRSF12Aaa28-80-M50A-hIgG1-Fc) (human). The experiment in a line: ELISA, TWEAKR-Fc coated 62 ng/ml, biotin-IgG titrated; + means IC50 1 to 150 pM.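 Note: biotinylated IgG binding to immobilized TWEAKR-Fc muteins, detected with Streptavidin-HRP and Amplex Red, IC50 derived from fitted dose-response curves of twofold serial dilutions.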
Method: (§2) To collect dose-response data, the different TWEAKR-Fc muteins were coated with a low concentration (62 ng/ml) in a 384-well Maxisorb ELISA plate and a serial 2fold dilution of biotinylated IgG starting with a concentration of 100 nM was used as soluble binding partner. Detection was done with Streptavidin-HRP and Amplex Red.
(§3) The dose-response data were fitted and IC50s determined.
The target in experiment [10] is TPP-1990 (hTNFRSF12Aaa28-80-L65Q-hIgG1-Fc) (human). Described as above.
Method: as §2, §3
Experiment [11] addresses TPP-2683 (hTNFRSF12Aaa28-80-R56P-hIgG1-Fc) (human). The description is as above.
Method: as §2, §3
In experiment [12] the target is TPP-1987 (hTNFRSF12Aaa28-80-S40R-hIgG1-Fc) (human). The experiment is described as above.
Method: as §2, §3
Experiment [13] addresses TPP-1989 (hTNFRSF12Aaa28-80-H60K-hIgG1-Fc) (human). The experiment is described as above.
Method: as §2, §3
The target of experiment [14] is TPP-1986 (hTNFRSF12Aaa28-80-T33Q-hIgG1-Fc) (human). The experiment is described as above.
Method: as §2, §3
Experiment [15] deals with T3, BAFF-R (TNFRSF13C) Fc fusion protein (Human, UniProt Q96RJ3 1-78).
T3 construct: extracellular domain; bought
The experiment in a line: ELISA, Fc fusion protein coated at 1 µg/ml, TPP-2090 at 75 nM, Amplex Red.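 Note: binding reported as ELISA signal intensity in Rfu against a panel of TNF receptor superfamily members presented as Fc fusion proteins.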

Experiment [16] concerns the target T4, Apo-3 (TNFRSF25) Fc fusion protein (Human, UniProt Q93038 25-199).
T4 construct: extracellular domain; bought
T4 sequence (looked up): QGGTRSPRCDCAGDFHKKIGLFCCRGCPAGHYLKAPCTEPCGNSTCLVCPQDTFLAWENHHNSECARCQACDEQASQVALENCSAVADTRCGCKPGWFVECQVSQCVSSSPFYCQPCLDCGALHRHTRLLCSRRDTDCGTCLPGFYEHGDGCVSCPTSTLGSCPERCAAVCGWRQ
The description is as above.

The target in experiment [17] is T5, NGF R (TNFRSF16) Fc fusion protein (Human, UniProt P08138 29-250).
T5 construct: extracellular domain; bought
T5 sequence (looked up): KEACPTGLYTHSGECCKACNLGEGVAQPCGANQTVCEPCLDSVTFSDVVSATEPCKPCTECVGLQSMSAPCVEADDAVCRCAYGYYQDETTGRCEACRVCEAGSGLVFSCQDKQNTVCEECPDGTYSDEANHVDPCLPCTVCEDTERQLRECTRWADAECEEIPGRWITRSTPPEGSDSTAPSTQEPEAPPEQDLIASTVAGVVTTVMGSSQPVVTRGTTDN
Described as above.

In experiment [18] the target is T6, TPP-2305 (hTNFRSF12Aaa28-80) (Human, UniProt Q9NP84 28-80).
T6 construct: monomeric extracellular domain, bought; also called purified recombinant human TWEAKR protein; soluble monomeric TWEAKR
Nature of the experiment: SPR (Biacore T100), IgG captured, TPP-2305 injected, 1:1 model.
Method: Binding affinities of anti-TWEAKR antibodies were determined by surface plasmon resonance analysis on a Biacore T100 instrument (GE Healthcare Biacore, Inc.). Antibodies were immobilized onto a CM5 sensor chip through an indirect capturing reagent, anti-human IgG(Fc). […] Anti-TWEAKR antibodies were injected at a concentration of 10 μg/ml at 10 μl/min for 10 sec.
Sensorgrams were generated after in-line reference cell correction followed by buffer sample subtraction. The dissociation equilibrium constant (KD) was calculated based on the ratio of association (kₒₙ) and dissociation rated (koff) constants, obtained by fitting sensorgrams with a first order 1:1 binding model.

The target of experiment [19] is T1, TWEAKR (TNFRSF12A, FN14), human, on …. Nature of the experiment: FACS, A375 cells, 10 ug/ml.
Method: as §1

T2 sequence (chain, as listed by the source limits assumed): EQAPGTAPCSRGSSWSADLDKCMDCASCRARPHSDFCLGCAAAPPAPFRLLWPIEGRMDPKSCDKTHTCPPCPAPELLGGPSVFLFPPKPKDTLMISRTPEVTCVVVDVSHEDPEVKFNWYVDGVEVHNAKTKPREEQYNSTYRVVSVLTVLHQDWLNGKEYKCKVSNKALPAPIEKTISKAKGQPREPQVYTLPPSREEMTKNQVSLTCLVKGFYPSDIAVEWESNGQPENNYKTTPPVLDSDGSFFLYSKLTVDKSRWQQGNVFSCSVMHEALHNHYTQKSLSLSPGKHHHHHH

B1: TPP-2090 (antibody, human IgG1, kappa, V domains shown)
VH: EVQLLESGGGLVQPGGSLRLSCAASGFTFSPYPMIWVRQAPGKGLEWVSYISPSGGSTHYADSVKGRFTISRDNSKNTLYLQMNSLRAEDTAVYYCARGGDTYFDYFDYWGQGTLVTVSS
VL: DIQMTQSPSSLSASVGDRVTITCRASQSISGYLNWYQQKPGKAPKLLIYQASSLQSGVPSRFSGSGSGTDFTLTISSLQPEDFATYYCQQSYTSPFITFGQGTKVEIKR
notes: Human IgG1
Take B1: in experiment [1], the “% Inhibition of proliferation, 786-O cells, 96h, 100 ug/ml” value turned out to be 71%. Besides, the “% Inhibition of proliferation, A253 cells, 72h, 100 ug/ml” value in experiment [1] stood at 99%. Further, the “% Inhibition of proliferation, HT-29 cells, 24h, 100 ug/ml” value in experiment [1] was more than 100%. In addition, the binding result in [2], in [9], in experiment [10], in experiment [11], in [12] and in experiment [13] was “binds” throughout. Also, the binding result in experiment [14] is “binds”; in [15], “no binding (tested: 75 nM)”; in experiment [16] it was “no binding (tested: 75 nM)”; in experiment [17], “no binding (tested: 75 nM)”. In experiment [3], the “IL-8 release from A375 cells at 100 ug/ml, % of the activation by 300 ng/ml TWEAK ligand” value came to 103%. Moreover, the “GeoMean of Fluorescence minus GeoMean with the secondary antibody only” value stood at 20300 in [4]; 2420 in experiment [5]; 2870 in experiment [6]; 291 in experiment [7]; 1420 in experiment [8]; 561 in experiment [19]. This molecule registered a Kd in experiment [18] of 12.4 nM.

B2: P4A8(TPP-1324) (antibody, human IgG1, kappa, V domains shown)
VH: QVQLVQSGAEVKKPGASVKVSCKGSGYTFTDYGMHWVRQAPGQGLEWMGVISTYNGYTNYNQKFKGRVTMTVDKSTSTAYMELRSLRSDDTAVYYCARAYYGNLYYAMDYWGQGTLVTVSS
VL: DIVLTQSPASLAVSLGQRATISCRASKSVSTSSYSYMHWYQQKPGQPPKLLIKYASNLESGVPARFSGSGSGTDFSLNIHPMEEDDTAMYFCQHSRELPFTFGGGTKLEIKR
notes: Human IgG1; variable domains from WO2009/140177 with constant region added
Turning to B2, the “% Inhibition of proliferation, 786-O cells, 96h, 100 ug/ml” value in experiment [1] is 29%. Also, the “% Inhibition of proliferation, A253 cells, 72h, 100 ug/ml” value in [1] was determined as 37%. Besides, the “% Inhibition of proliferation, HT-29 cells, 24h, 100 ug/ml” value in experiment [1] is -10%. In addition, in [1], the “% Inhibition of proliferation, WiDr cells, 96h, 100 ug/ml” value was 4%. The binding result in experiment [2], in [9], in experiment [10], in experiment [11], in [12] and in experiment [13] was “binds” throughout. Also, the binding result in experiment [14] is listed as “binds”. Moreover, the “IL-8 release from A375 cells at 100 ug/ml, % of the activation by 300 ng/ml TWEAK ligand” value in [3] turned out to be 29%. In addition, the “GeoMean of Fluorescence minus GeoMean with the secondary antibody only” value was 30200 in [4]; 5920 in experiment [5]; 5970 in experiment [6]; 978 in experiment [7]; 3670 in experiment [8]; 1580 in experiment [19]. The molecule also showed a dissociation constant (Kd) in experiment [18] of 2.3 nM. The off-rate constant (koff) in experiment [18] was 0.0027 s⁻¹. For the same molecule, in experiment [18], the kon stood at 1.2e+06 M⁻¹ s⁻¹.
